Experimental findings from patent US20210317229A1 are described below.

In this assay the target is Recombinant EpCAM (R&D systems), conjugated with Alexa Fluor 647 (UniProt P16422). As to the kind of experiment: flow cytometry, AF647-labelled recombinant EpCAM at 360nM on HEK293T cells expressing the myc-tagged CAR; ratio to anti-myc-FITC signal. A general note: Flow cytometry measures light scatter and fluorescence of single cells or particles in a stream.
Chain of UniProt P16422 (P16422 24-265 limits assumed): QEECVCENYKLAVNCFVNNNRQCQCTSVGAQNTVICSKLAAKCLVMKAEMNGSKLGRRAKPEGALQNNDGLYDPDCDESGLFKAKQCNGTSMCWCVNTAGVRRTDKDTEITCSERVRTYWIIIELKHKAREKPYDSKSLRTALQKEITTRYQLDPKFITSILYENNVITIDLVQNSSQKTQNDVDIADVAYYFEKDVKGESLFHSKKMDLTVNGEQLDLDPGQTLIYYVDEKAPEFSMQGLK
In the case of “CAR containing L4A scFv (UBS-54 variant, CDR-H3 DPFAHY) (from UniProt P01732 138-182; P10747 153-220; P20963 52-164)”, the MFIAF647/MFIFITC was 0.302.

On to “CAR containing D1A scFv (UBS-54 variant, CDR-H3 APFLHY) (from UniProt P01732 138-182; P10747 153-220; P20963 52-164)”, for which the MFIAF647/MFIFITC is 0.246.

On to “CAR containing Y6L scFv (UBS-54 variant, CDR-H3 DPFLHL) (from UniProt P01732 138-182; P10747 153-220; P20963 52-164)”, for which the MFIAF647/MFIFITC came out at 0.031.

Regarding “CAR containing Y6V scFv (UBS-54 variant, CDR-H3 DPFLHV) (from UniProt P01732 138-182; P10747 153-220; P20963 52-164)”, the MFIAF647/MFIFITC amounted to 0.026.

In the case of “CAR containing Y6F scFv (UBS-54 variant, CDR-H3 DPFLHF) (from UniProt P01732 138-182; P10747 153-220; P20963 52-164)”, the MFIAF647/MFIFITC was found to be 0.239.

For “CAR containing F3A scFv (UBS-54 variant, alanine at CDR-H3 position 3) (from UniProt P01732 138-182; P10747 153-220; P20963 52-164)”, the MFIAF647/MFIFITC was 0.016.

As to “CAR containing Y6A scFv (UBS-54 variant, CDR-H3 DPFLHA) (from UniProt P01732 138-182; P10747 153-220; P20963 52-164)”, the MFIAF647/MFIFITC was found to be 0.018.
